Experimental data: patent publication US20090098124A1 (MacroGenics, published 2009)
Where a chain is given by its changes, count along the chain named. Names and notes keep the numbering of the source. Like-named read-outs stand apart in the source and are kept apart here.

T1: soluble dimeric FcγRIIB (extracellular domain fused to hinge-CH2-CH3 of human IgG2) (human, UniProt P31994 43-217)
T1 construct: extracellular domain; also called FcRIIB; FcRIIB-Fc; not shown: human IgG2 hinge-CH2-CH3
T1 sequence (looked up): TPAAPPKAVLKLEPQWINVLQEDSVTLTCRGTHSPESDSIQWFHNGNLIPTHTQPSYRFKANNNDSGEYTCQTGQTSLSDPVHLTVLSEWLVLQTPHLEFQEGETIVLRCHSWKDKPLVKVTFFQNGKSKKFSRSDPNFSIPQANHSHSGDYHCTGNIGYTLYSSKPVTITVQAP

B1: IgG1 Fc mutant K246N, Q419R, P396L (antibody)
heavy: ASTKGPSVFPLAPSSKSTSGGTAALGCLVKDYFPEPVTVSWNSGALTSGVHTFPAVLQSSGLYSLSSVVTVPSSSLGTQTYICNVNHKPSNTKVDKKVEPKSCDKTHTCPPCPAPELLGGPSVFLFPPNPKDTLMISRTPEVTCVVVDVSHEDPEVKFNWYVDGVEVHNAKTKPREEQYNSTYRVVSVLTVLHQDWLNGKEYKCKVSNKALPAPIEKTISKAKGQPREPQVYTLPPSRDELTKNQVSLTCLVKGFYPSDIAVEWESNGQPENNYKTTPLVLDSDGSFFLYSKLTVDKSRWQRGNVFSCSVMHEALHNHYTQKSLSLSPGK
B2: IgG1 Fc mutant K290E, V369A, T393A, P396L (antibody)
heavy: B1 heavy with N129K, K173E, V252A, T276A, R302Q
B3: IgG1 Fc mutant P247L, W313R, E388G (antibody)
heavy: B1 heavy with N129K, P130L, W196R, E271G, L279P, R302Q
B4: IgG1 Fc mutant P244H, L358M, V379M, N384K, V397M (antibody)
heavy: B1 heavy with P127H, N129K, L241M, V262M, N267K, L279P, V280M, R302Q
B5: IgG1 Fc mutant P343S, P353L, S375I, S383N (antibody)
heavy: B1 heavy with N129K, P226S, P236L, S258I, S266N, L279P, R302Q
B6: IgG1 Fc mutant R301H, K340E, D399E (antibody)
heavy: B1 heavy with N129K, R184H, K223E, L279P, D282E, R302Q
B7: IgG1 Fc mutant V397M, T411A, S415N (antibody)
heavy: B1 heavy with N129K, L279P, V280M, T294A, S298N, R302Q
B8: IgG1 Fc mutant V273I, K326E, L328I, P396L (antibody)
heavy: B1 heavy with N129K, V156I, K209E, L211I, R302Q
B9: IgG1 Fc mutant V282E, V369I, L406F (antibody)
heavy: B1 heavy with N129K, V165E, V252I, L279P, L289F, R302Q
B10: IgG1 Fc mutant K326I, S408N, P396L (antibody)
heavy: B1 heavy with N129K, K209I, S291N, R302Q
B11: IgG1 Fc mutant P247L, A330T, S440G (antibody)
heavy: B1 heavy with N129K, P130L, A213T, L279P, R302Q, S323G
B12: IgG1 Fc mutant K246R, S298N, I377F (antibody)
heavy: B1 heavy with N129R, S181N, I260F, L279P, R302Q
B13: IgG1 Fc mutant P247L, I253N, K334N (antibody)
heavy: B1 heavy with N129K, P130L, I136N, K217N, L279P, R302Q
B14: IgG1 Fc mutant V303I, V369F, M428L (antibody)
heavy: B1 heavy with N129K, V186I, V252F, L279P, R302Q, M311L
B15: IgG1 Fc mutant K290T, N390I, P396L (antibody)
heavy: B1 heavy with N129K, K173T, N273I, R302Q
B16: IgG1 Fc mutant K334E, E380D, G446V (antibody)
heavy: B1 heavy with N129K, K217E, E263D, L279P, R302Q, G329V
B17: IgG1 Fc mutant K326Q, K334E, T359N, T366S (antibody)
heavy: B1 heavy with N129K, K209Q, K217E, T242N, T249S, L279P, R302Q

Legend:
[1] = molecular target: soluble monomeric FcγRIIIA (extracellular region joined to linker-AVITAG), allele not stated (human) (UniProt P08637); test: ELISA
[2] = molecular target: soluble dimeric FcγRIIB (extracellular domain fused to hinge-CH2-CH3 of human IgG2) (human) (UniProt P31994); test: ELISA
[3] = molecular target: soluble FcγRIIIA 158V (human) (UniProt P08637); test: SPR (BIAcore) steady-state analysis, ch4D5 antibody captured on immobilised ErbB2/Fc-aglycosyl chimera, soluble FcγRIIIA V158 (printed 3aV150) injected at 0.1-[…]
[4] = molecular target: soluble FcγRIIIA 158F (human) (UniProt P08637); test: SPR (BIAcore) steady-state analysis, ch4D5 antibody captured on immobilised ErbB2/Fc-aglycosyl chimera, soluble FcγRIIIA F158 (printed 3aF150) injected at 0.2-[…]
[5] = molecular target: soluble monomeric FcγRIIIA (extracellular region joined to linker-AVITAG), allele not stated (human) (UniProt P08637); test: SPR
[6] = molecular target: soluble dimeric FcγRIIB (extracellular domain fused to hinge-CH2-CH3 of human IgG2) (human) (UniProt P31994); test: SPR
[7] = molecular target: soluble dimeric FcγRIIB (extracellular domain fused to hinge-CH2-CH3 of human IgG2) (human) (UniProt P31994); test: SPR; remark: listed apart in the source
[8] = molecular target: soluble monomeric FcγRIIIA (extracellular region joined to linker-AVITAG), allele not stated (human) (UniProt P08637); test: SPR; remark: listed apart in the source
[9] = molecular target: T1, soluble dimeric FcγRIIB (extracellular …); test: ELISA
[10] = molecular target: T2, soluble monomeric FcγRIIIA (extracellular region joined to linker-AVITAG), allele not stated (human, UniProt P08637 17-208); test: ELISA
T2 construct: extracellular domain; also called FcRIIIA; CD16A; not shown: linker-AVITAG
T2 sequence (P08637 17-208): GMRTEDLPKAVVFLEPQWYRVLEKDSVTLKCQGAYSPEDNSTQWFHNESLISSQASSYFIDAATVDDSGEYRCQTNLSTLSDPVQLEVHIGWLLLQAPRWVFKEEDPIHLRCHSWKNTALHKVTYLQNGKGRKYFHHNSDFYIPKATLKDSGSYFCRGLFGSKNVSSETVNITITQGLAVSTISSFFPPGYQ

soluble monomeric FcγRIIIA (extracellular region joined to linker-AVITAG), allele not stated (human), sequence (P08637 17-208): as above
soluble FcγRIIIA 158F (human), sequence (P08637 17-208): as above

| Molecule | Binding to FcγRIIB (ELISA) [9] | Binding to FcγRIIIA (ELISA) [10] | other results |
| --- | --- | --- | --- |
| IgG1 Fc mutant D399E, M428L (from UniProt P01857 1-330) (antibody) | – | – | Binding to FcγRIIIA (ELISA) (fold decrease) [1]: 0.5; Binding to FcγRIIB (ELISA) (fold decrease) [2]: 0.5 |
| IgG1 Fc mutant S298N, S407R (from UniProt P01857 1-330) (antibody) | – | – | Binding to FcγRIIIA (ELISA) (fold increase) [1]: 0.5 |
| IgG1 Fc mutant S383N; N384K; T256N; V262L; K218E; R214I; K205E; F149Y; K133M (from UniProt P01857 1-330) (antibody) | – | – | Binding to FcγRIIIA (ELISA) (fold increase) [1]: 0.5 |
| ch4D5 wild type (IgG1) (antibody) | – | – | Kd [3]: 36 µM; Kd [4]: 1.54 µM |
| IgG1 Fc mutant V348M; K334N; F275I; Y202M; K147T (from UniProt P01857 1-330) (antibody) | – | – | Binding to FcγRIIIA (ELISA) (fold increase) [1]: 0.5 |
| IgG1 Fc mutant S407I (from UniProt P01857 1-330) (antibody) | – | – | Binding to FcγRIIIA (ELISA) (fold increase) [1]: 0.5 |
| ch4-4-20 wild type (antibody) | – | – | Kd [5]: 0.198 µM; Kd [6]: 0.094 µM; ELISA IIIA binding [1]: 1 fold; ELISA OD [1]: 0.5 OD; ELISA OD [2]: 0.4 OD; Kd [7]: 0.0614 µM; Kd [8]: 0.319 µM |
| IgG1 Fc mutant H310Y; T289A; G337E (from UniProt P01857 1-330) (antibody) | – | – | Binding to FcγRIIIA (ELISA) (fold increase) [1]: 0.5 |
| IgG1 Fc mutant D312E, K327N, I378S (from UniProt P01857 1-330) (antibody) | – | – | Binding to FcγRIIIA (ELISA) (fold increase) [1]: 0.5 |
| B1 | 4.8 fold increase | 1.1 fold increase | – |
| B2 | 6.7 fold increase | 1.3 fold increase | – |
| B3 | 1 fold increase | 1.5 fold increase | – |
| B4 | 1.5 fold increase | 1.75 fold increase | – |
| B5 | 6 fold increase | 0.5 fold increase | – |
| B6 | 0.25 fold decrease | 0.5 fold decrease | – |
| B7 | 5 fold increase | 0.25 fold increase | – |
| B8 | 10.8 fold increase | 1.3 fold increase | – |
| B9 | 7 fold increase | 0.5 fold increase | – |
| B10 | 9.3 fold increase | 4 fold increase | – |
| B11 | 0.25 fold decrease | 0.75 fold increase | – |
| B12 | 5 fold increase | 1 fold increase | – |
| B13 | 2.5 fold increase | 3 fold increase | – |
| B14 | – | – | binding result [9]: no binding; binding result [10]: no binding |
| B15 | 6.1 fold increase | 2.8 fold increase | – |
| B16 | – | – | binding result [9]: no binding; binding result [10]: no binding |
| B17 | 5 fold increase | 1.5 fold increase | – |
